Results on 7 molecules are retold here after patent US9522945B2 (OPKO Biologics Ltd., priority 2012, dated 2016).

The test system of series [1] is C57BL/6 mice. The series can be described thus: IP glucose tolerance test (IPGTT). It is filed as in vivo. Conditions: for effect on glucose levels / glucose tolerance, in words: Experiment 1, 100 nmol/kg IP 15 min prior to glucose IP (1.5 g/kg).
Experimental: Overnight-fasted mice were measured for glucose (pre-dose glucose). Immediately after, they were IP injected with one of the test articles. […] Blood glucose level were measured by tail vein sampling using a handheld glucometer.
Series [2] deals with C57BL/6 mice. Kind of series: Acute food intake study. It is filed as in vivo.
Experimental: At least one week before injection, mice were weighed and were transferred to a mini cage for acclimatization, (one mouse per cage). During the acclimatization period, they were handled daily and received two injections of vehicle to minimize stress during the study period. The day before the experiment, the mice were fasted. […] After injection, the mice were returned to their home cages (1 mouse per cage), and provided with a pre-weighed amount of chow. Food intake were measured 0, 1, 2, 4, 6, 8, 21, 32 and 44, 55, 68, 80, 93 and 141 h post injection by weighing the chow.
In this study, the acute effect on food intake was measured.
On the set-up of series [3]: species or system rats. The settings on record: rat, in vivo.
Text: Cohorts of 3 animals per group were bled at alternating time points. […] The study was divided into 3 sequential experiments, Experiment #1 (Groups 1-4), Experiment #2 (Groups 5-9) and Experiment #3 (Groups 10-13).

Read-outs that look alike come from different tables or passages of the source.
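For CL in this document: blood drawn at alternating time points, with three animals in each cohort.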
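For Tmax in this document: blood drawn at alternating time points, with three animals in each cohort.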
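For Vd in this document: blood drawn at alternating time points, with three animals in each cohort.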
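For pharmacokinetic profile / PK parameters, comparison in words in this document: blood drawn at alternating time points, with three animals in each cohort.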

B1: OXM-CTP-CTP-CTP-CTP: oxyntomodulin with four CTPs on the carboxy terminus, SEQ ID NO: 27 (protein)
chain: MATGSRTSLLLAFGLLCLPWLQEGSAHSQGTFTSDYSKYLDSRRAQDFVQWLMNTKRNRNNIASSSSKAPPPSLPSPSRLPGPSDTPILPQSSSSKAPPPSLPSPSRLPGPSDTPILPQSSSSKAPPPSLPSPSRLPGPSDTPILPQSSSSKAPPPSLPSPSRLPGPSDTPILPQ
modifications: OXM-CTPx4
As to B1, the “glucose tolerance activity when administered 120 min prior to glucose” value with C57BL/6 mice [1] (Experiment 2, 100 nmol/kg IP 120 min prior to glucose) is reported as “induced glucose tolerance activity”. Moreover, the “inhibition of food intake, comparison in words” value in the series on C57BL/6 mice [2] (single administration, mice) is “did not last as long as OXM-CTPx5 or OXM-CTPx3”. Besides, in series [3], the “pharmacokinetic profile / PK parameters, comparison in words” value (from here on “pharmacokinetic profile / PK parameters”) is given as “superior in these parameters compared to other variants”. Also, in series [3] (sc), the CL was determined as 5.923 mL/min/kg, the Tmax was 2.0 h and the Vd came to 5.3796 L/kg.

B2: CTP-OXM-CTP-CTP: oxyntomodulin with one CTP on the amino terminus and two on the carboxy terminus, SEQ ID NO: 15 (protein)
chain: MATGSRTSLLLAFGLLCLPWLQEGSASSSSKAPPPSLPSPSRLPGPSDTPILPQHSQGTFTSDYSKYLDSRRAQDFVQWLMNTKRNRNNIASSSSKAPPPSLPSPSRLPGPSDTPILPQSSSSKAPPPSLPSPSRLPGPSDTPILPQ
modifications: CTP-OXM-CTP-CTP
As for B2, in series [3], the Bioavailability came to 32.43% and the “bioavailability as calculated from Experiments 1 & 2, change in words” value (from here on “bioavailability as calculated … change in words”) is listed as “increased”. In addition, in series [3] (iv, 230 ug/kg), the “AUC(0-t)” value turned out to be 968.2 ng·h/mL, the “AUC∞” value is 977.4 ng·h/mL, the CL amounted to 3.623 mL/min/kg and the MRT turned out to be 0.80 h. In series [3] (iv, 230 ug/kg), the T½ turned out to be 0.28 h, the T½β came out at 1.61 h and the Vd stood at 0.5064 L/kg. In addition, in series [3] (sc, 230 ug/kg), the “AUC(0-t)” value turned out to be 313.98 ng·h/mL, the “AUC∞” value stood at 320.86 ng·h/mL, the CL was 11.038 mL/min/kg and the Cmax is 30.18 ng/mL. In series [3] (sc, 230 ug/kg), the MRT stood at 6.62 h, the Tmax was determined as 6.00 h, the T½ was 4.39 h and the Vd turned out to be 4.13925 L/kg.

B3: OXM-CTP-CTP-CTP-CTP-CTP: oxyntomodulin with five CTPs on the carboxy terminus, SEQ ID NO: 29 (protein)
chain: MATGSRTSLLLAFGLLCLPWLQEGSAHSQGTFTSDYSKYLDSRRAQDFVQWLMNTKRNRNNIASSSSKAPPPSLPSPSRLPGPSDTPILPQSSSSKAPPPSLPSPSRLPGPSDTPILPQSSSSKAPPPSLPSPSRLPGPSDTPILPQSSSSKAPPPSLPSPSRLPGPSDTPILPQSSSSKAPPPSLPSPSRLPGPSDTPILPQ
modifications: OXM-CTPx5
As for B3, the “cumulative food inhibition sustained for” value with C57BL/6 mice [2] (cumulative food intake, mice) is “at least 141 hrs”. Besides, the “time for which food intake was reduced compared to vehicle” value with C57BL/6 mice [2] (single SC 1700 nmol/kg, male C57BL/6 mice) is given as 5 days. Also, the “duration of food intake inhibition, percentage of food intake per time interval” value in the series with C57BL/6 mice [2] (time intervals over the experiment (FIG. 6B), single SC, male C57BL/6 mice) was “about 80 hours”. The “pharmacokinetic profile / PK parameters” value in series [3] was “superior in these parameters compared to other variants”. In series [3] (sc), the CL was 5.77 mL/min/kg, the Tmax was 8 h, the T½ worked out at 9.63 h and the Vd worked out at 4.812 L/kg.

B4: OXM-CTP-CTP-CTP: oxyntomodulin with three CTPs on the carboxy terminus, SEQ ID NO: 25 (protein)
chain: MATGSRTSLLLAFGLLCLPWLQEGSAHSQGTFTSDYSKYLDSRRAQDFVQWLMNTKRNRNNIASSSSKAPPPSLPSPSRLPGPSDTPILPQSSSSKAPPPSLPSPSRLPGPSDTPILPQSSSSKAPPPSLPSPSRLPGPSDTPILPQ
modifications: OXM-CTPx3
For the molecule B4, in series [3] (sc), the CL was determined as 8.547 mL/min/kg, the time of peak concentration (Tmax) came to 2.0 h, the T½ was 3.78 h and the Vd came out at 2.797 L/kg.

B5: OXM-CTP-CTP: oxyntomodulin with two CTPs in tandem on the carboxy terminus, SEQ ID NO: 21, expressed in CHO cells (protein)
chain: LEDMATGSRTSLLLAFGLLCLPWLQEGSAHSQGTFTSDYSKYLDSRRAQDFVQWLMNTKRNRNNIASSSSKAPPPSLPSPSRLPGPSDTPILPQSSSSKAPPPSLPSPSRLPGPSDTPILPQ
modifications: OXM-CTP-CTP
For B5, the “pharmacokinetic profile / PK parameters” value in series [3] was “superior PK parameters as compared to the CTP-OXM-CTP-CTP variant”. In series [3] (sc, 230 ug/kg), the “AUC(0-t)” value was found to be 697.00 ng·h/mL, the “AUC∞” value came out at 702.10 ng·h/mL, the CL came to 5.045 mL/min/kg and the Cmax is 50.90 ng/mL. Besides, in series [3] (sc, 230 ug/kg), the MRT was 8.20 h, the Tmax stood at 6.00 h, the T½ is 4.76 h and the Vd came out at 2.0789 L/kg.

B6: CTP-OXM-CTP: oxyntomodulin with one CTP on the amino terminus and one on the carboxy terminus, SEQ ID NO: 9 (protein)
chain: MATGSRTSLLLAFGLLCLPWLQEGSASSSSKAPPPSLPSPSRLPGPSDTPILPQHSQGTFTSDYSKYLDSRRAQDFVQWLMNTKRNRNNIASSSSKAPPPSLPSPSRLPGPSDTPILPQ
modifications: CTP-OXM-CTP
Consider B6, for which the “effect on glucose levels / glucose tolerance, in words” value in the series on C57BL/6 mice [1] is reported as “increased glucose levels”. In addition, in series [3], the Bioavailability is reported as 24.44% and the “bioavailability as calculated … change in words” value is on record as “no significant improvement”. Also, in series [3] (iv, 230 ug/kg), the “AUC(0-t)” value came out at 592.7 ng·h/mL, the “AUC∞” value is 598.0 ng·h/mL, the CL amounted to 5.922 mL/min/kg and the MRT stood at 0.81 h. Besides, in series [3] (iv, 230 ug/kg), the T½ amounted to 0.25 h, the T½β came out at 1.57 h and the Vd was 0.8069 L/kg. In series [3] (sc, 230 ug/kg), the “AUC(0-t)” value stood at 144.87 ng·h/mL, the “AUC∞” value was found to be 170.82 ng·h/mL, the CL stood at 20.7328 mL/min/kg and the Cmax worked out at 31.11 ng/mL. In series [3] (sc, 230 ug/kg), the MRT amounted to 4.73 h, the Tmax worked out at 1.00 h, the T½ amounted to 3.28 h and the Vd was 5.88775 L/kg.

B7: CTP-CTP-OXM: oxyntomodulin with two CTPs on the amino terminus, SEQ ID NO: 23 (protein)
chain: MATGSRTSLLLAFGLLCLPWLQEGSASSSSKAPPPSLPSPSRLPGPSDTPILPQSSSSKAPPPSLPSPSRLPGPSDTPILPQHSQGTFTSDYSKYLDSRRAQDFVQWLMNTKRNRNNIARSGCGRGTLGLMGLPFTARFP
modifications: CTPx2-OXM
For B7, the “effect on glucose levels / glucose tolerance, in words” value with C57BL/6 mice [1] is on record as “minor impact on glucose tolerance”. Besides, in series [3], the Bioavailability came to 23.36% and the “bioavailability as calculated … change in words” value was “no significant improvement”. Further, in series [3] (iv, 230 ug/kg), the “AUC(0-t)” value turned out to be 488.6 ng·h/mL, the “AUC∞” value is 490.4 ng·h/mL, the CL is 7.222 mL/min/kg and the MRT was determined as 0.86 h. Further, in series [3] (iv, 230 ug/kg), the T½ came out at 0.27 h, the T½β came out at 1.20 h and the Vd was 0.7481 L/kg. Besides, in series [3] (sc, 230 ug/kg), the “AUC(0-t)” value came to 114.15 ng·h/mL, the “AUC∞” value turned out to be 129.85 ng·h/mL, the CL was determined as 27.2758 mL/min/kg and the Cmax came out at 27.77 ng/mL. Also, in series [3] (sc, 230 ug/kg), the MRT turned out to be 4.10 h, the Tmax came to 1.00 h, the T½ worked out at 2.74 h and the Vd is 6.45976 L/kg.

As a reminder, the Tmax is the time from dosing to the highest level. For orientation: AUC(0-t) means exposure summed from dosing to a finite time, without extrapolation to infinity. A high value points to more exposure. As a reminder, the MRT is the average time that molecules of a dose stay in the body. What is called Cmax is the highest concentration seen after dosing.
